From paper doi:10.1101/2024.12.05.626941 come the findings set out here.

Test in all cases: SEC
Experiment [1] deals with Physcomitrella patens adenosine kinase 2 (PpADK2) (Physcomitrella patens).
Experiment [2] deals with Zea mays adenosine kinase 1 (ZmADK1) (Zea mays).
Experiment [3] addresses Zea mays adenosine kinase 2 (ZmADK2) (Zea mays).
Experiment [4] deals with Zea mays adenosine kinase 3 (ZmADK3) (Zea mays).

One may read the stoichiometry N as the number of molecules, sites or subunits per partner or assembly. In turn, “Physcomitrella patens adenosine kinase 2 (PpADK2) (enzyme)” gave a stoichiometry N in experiment [1] of 2.
“Zea mays adenosine kinase 1 (ZmADK1) (enzyme)” came in with a stoichiometry N in experiment [2] of 2.
“Zea mays adenosine kinase 2 (ZmADK2) (enzyme)” displayed a stoichiometry N in experiment [3] of 2.
Consider “Zea mays adenosine kinase 3 (ZmADK3) (enzyme)”, for which, in experiment [4], the stoichiometry N amounted to 2.
